From publication PMC9482650, “Quantitative fragmentomics allow affinity mapping of interactomes” (Nature Communications, 2022)

B1: NLGN4X, Q8N0W4 (peptide)
chain: LPHGHSTTRV
B2: MMP24, Q9Y5R2 (peptide)
chain: YYKRPVQEWV

What was measured:
Test in all cases: holdup assay
Parameters in all cases: key: below the threshold = too weak to quantify, mostly under pKd 3.1 to 4
Conditions in all cases: plain residues with an end cap or a label only (N-terminal biotin on a linker: ado-ado)
DFNB31_3, Q9P202 = target: T1, DFNB31_3, Q9P202
T1 sequence (Q9P202 811-907, limits assumed, looked up): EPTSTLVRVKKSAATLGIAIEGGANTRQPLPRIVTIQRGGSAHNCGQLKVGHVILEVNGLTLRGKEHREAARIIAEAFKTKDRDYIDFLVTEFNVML

DLG4_2, P78352 = target: DLG4_2, P78352
DLG4_3, P78352 = target: DLG4_3, P78352
DVL3, Q92997 = target: T2, DVL3, Q92997
T2 sequence (Q92997 244-331, limits assumed, looked up): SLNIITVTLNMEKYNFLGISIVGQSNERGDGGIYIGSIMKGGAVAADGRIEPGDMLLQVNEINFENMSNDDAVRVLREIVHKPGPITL

GIPC2, Q8TF65 = target: GIPC2, Q8TF65
GORASP1, Q9BQQ3 = target: GORASP1, Q9BQQ3
GORASP2, Q9H8Y8 = target: GORASP2, Q9H8Y8
GRIP1_2, Q9Y3R0 = target: T3, GRIP1_2, Q9Y3R0
T3 sequence (Q9Y3R0 145-248, limits assumed, looked up): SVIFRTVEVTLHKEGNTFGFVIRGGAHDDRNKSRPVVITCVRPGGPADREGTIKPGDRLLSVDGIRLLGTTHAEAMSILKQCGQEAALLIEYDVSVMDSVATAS

GRIP1_3, Q9Y3R0 = target: T4, GRIP1_3, Q9Y3R0
T4 sequence (Q9Y3R0 247-346, limits assumed, looked up): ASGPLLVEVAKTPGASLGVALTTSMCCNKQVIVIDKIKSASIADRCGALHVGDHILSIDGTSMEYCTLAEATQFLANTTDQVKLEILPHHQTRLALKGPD

GRIP1_5, Q9Y3R0 = target: T5, GRIP1_5, Q9Y3R0
T5 sequence (Q9Y3R0 568-668, limits assumed, looked up): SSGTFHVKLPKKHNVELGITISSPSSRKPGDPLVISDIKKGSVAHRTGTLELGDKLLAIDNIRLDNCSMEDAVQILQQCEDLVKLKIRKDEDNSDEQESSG

HTRA1, Q92743 = target: HTRA1, Q92743
Inadl_10, Q8NI35 = target: Inadl_10, Q8NI35
LIN7A, O14910 = target: T6, LIN7A, O14910
T6 sequence (O14910 103-200, limits assumed, looked up): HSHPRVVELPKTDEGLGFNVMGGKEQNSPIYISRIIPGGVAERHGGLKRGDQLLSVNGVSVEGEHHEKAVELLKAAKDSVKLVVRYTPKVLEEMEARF

LNX1_1, Q8TBB1 = target: LNX1_1, Q8TBB1
LNX1_3, Q8TBB1 = target: LNX1_3, Q8TBB1
MAGI1_1, Q96QZ7 = target: MAGI1_1, Q96QZ7
MAST2, Q6P0Q8 = target: MAST2, Q6P0Q8
NHERF4_2, Q86UT5 = target: NHERF4_2, Q86UT5
NHERF4_4, Q86UT5 = target: NHERF4_4, Q86UT5
PDLIM1, O00151 = target: PDLIM1, O00151
PDZRN3_1, Q9UPQ7 = target: T7, PDZRN3_1, Q9UPQ7
T7 sequence (Q9UPQ7 244-349, limits assumed, looked up): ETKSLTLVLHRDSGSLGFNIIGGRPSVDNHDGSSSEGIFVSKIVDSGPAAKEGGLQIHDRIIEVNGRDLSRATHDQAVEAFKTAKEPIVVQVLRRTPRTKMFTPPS

PDZRN4_1, Q6ZMN7 = target: PDZRN4_1, Q6ZMN7
RADIL, Q96JH8 = target: T8, RADIL, Q96JH8
T8 sequence (Q96JH8 971-1071, limits assumed, looked up): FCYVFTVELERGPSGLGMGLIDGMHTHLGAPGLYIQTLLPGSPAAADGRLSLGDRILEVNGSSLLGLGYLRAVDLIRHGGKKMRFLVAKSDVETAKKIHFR

RAPGEF6, Q8TEU7 = target: T9, RAPGEF6, Q8TEU7
T9 sequence (Q8TEU7 525-625, limits assumed, looked up): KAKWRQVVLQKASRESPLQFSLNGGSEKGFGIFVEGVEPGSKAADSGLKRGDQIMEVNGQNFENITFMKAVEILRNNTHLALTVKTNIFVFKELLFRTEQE

RHPN1, Q8TCX5 = target: T10, RHPN1, Q8TCX5
T10 sequence (Q8TCX5 508-602, limits assumed, looked up): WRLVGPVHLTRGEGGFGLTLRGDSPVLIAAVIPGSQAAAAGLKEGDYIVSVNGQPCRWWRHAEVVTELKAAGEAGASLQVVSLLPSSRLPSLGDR

SCRIB_1, Q14160 = target: SCRIB_1, Q14160
TJP2_1, Q9UDY2 = target: TJP2_1, Q9UDY2
TJP2_1, Q9UDY2, sequence (Q9UDY2 24-128): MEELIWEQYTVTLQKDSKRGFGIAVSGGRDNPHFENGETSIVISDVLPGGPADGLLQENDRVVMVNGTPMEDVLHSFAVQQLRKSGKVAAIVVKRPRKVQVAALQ

MAGI1_1, Q96QZ7, sequence (Q96QZ7 1-106): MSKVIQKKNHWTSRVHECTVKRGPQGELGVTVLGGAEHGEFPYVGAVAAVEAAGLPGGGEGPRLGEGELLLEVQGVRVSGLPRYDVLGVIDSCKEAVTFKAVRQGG
LNX1_1, Q8TBB1, sequence (Q8TBB1 261-371): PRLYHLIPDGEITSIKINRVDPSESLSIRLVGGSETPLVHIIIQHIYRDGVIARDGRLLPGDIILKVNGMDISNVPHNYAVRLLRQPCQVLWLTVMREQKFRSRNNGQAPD
DLG4_2, P78352, sequence (P78352 155-259): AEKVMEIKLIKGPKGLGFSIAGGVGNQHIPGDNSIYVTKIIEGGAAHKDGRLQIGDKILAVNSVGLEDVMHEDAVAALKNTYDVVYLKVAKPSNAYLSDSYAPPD
NHERF4_2, Q86UT5, sequence (Q86UT5 220-308): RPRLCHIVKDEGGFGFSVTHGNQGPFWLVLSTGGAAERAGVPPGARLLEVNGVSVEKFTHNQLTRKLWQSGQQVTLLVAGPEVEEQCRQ
DLG4_3, P78352, sequence (P78352 306-403): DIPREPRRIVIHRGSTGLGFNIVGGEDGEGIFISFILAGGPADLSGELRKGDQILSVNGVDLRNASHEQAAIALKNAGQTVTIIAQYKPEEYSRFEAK
SCRIB_1, Q14160, sequence (Q14160 718-814): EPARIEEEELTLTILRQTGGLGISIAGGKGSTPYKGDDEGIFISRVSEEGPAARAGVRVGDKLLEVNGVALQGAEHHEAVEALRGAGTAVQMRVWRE
PDZRN4_1, Q6ZMN7, sequence (Q6ZMN7 213-318): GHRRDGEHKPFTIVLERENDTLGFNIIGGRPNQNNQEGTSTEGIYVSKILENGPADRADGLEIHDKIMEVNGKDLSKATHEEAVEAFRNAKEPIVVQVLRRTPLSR
NHERF4_4, Q86UT5, sequence (Q86UT5 464-550): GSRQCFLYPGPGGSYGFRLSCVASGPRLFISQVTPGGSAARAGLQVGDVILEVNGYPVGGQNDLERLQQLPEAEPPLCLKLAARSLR
MAST2, Q6P0Q8, sequence (Q6P0Q8 1099-1202): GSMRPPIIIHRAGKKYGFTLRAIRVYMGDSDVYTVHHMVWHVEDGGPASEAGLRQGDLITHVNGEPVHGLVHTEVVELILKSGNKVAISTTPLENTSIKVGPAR
LNX1_3, Q8TBB1, sequence (Q8TBB1 500-596): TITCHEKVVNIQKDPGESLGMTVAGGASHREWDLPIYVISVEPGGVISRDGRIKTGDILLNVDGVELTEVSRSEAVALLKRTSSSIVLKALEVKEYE
PDLIM1, O00151, sequence (O00151 1-87): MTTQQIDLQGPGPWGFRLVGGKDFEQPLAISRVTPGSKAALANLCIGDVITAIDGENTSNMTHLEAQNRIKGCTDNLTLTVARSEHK
HTRA1, Q92743, sequence (Q92743 360-477): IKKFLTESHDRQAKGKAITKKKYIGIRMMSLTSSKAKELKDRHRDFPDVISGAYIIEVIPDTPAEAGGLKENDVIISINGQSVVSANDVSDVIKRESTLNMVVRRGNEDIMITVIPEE
Inadl_10, Q8NI35, sequence (Q8NI35 1673-1763): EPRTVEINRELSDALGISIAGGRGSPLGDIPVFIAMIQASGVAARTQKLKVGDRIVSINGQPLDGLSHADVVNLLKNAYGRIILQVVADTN
GIPC2, Q8TF65, sequence (Q8TF65 112-203): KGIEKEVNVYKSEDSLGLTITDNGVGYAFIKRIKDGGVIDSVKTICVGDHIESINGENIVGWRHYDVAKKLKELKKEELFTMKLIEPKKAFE
GORASP1, Q9BQQ3, sequence (Q9BQQ3 1-208): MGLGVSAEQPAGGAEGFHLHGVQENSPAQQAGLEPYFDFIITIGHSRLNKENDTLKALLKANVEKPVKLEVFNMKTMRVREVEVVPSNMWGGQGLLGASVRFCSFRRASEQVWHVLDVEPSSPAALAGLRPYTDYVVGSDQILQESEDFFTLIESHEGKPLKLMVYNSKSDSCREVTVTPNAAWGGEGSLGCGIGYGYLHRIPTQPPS

Binder	pKd (DFNB31_3, Q9P202)	pKd (DLG4_2, P78352)	pKd (DLG4_3, P78352)	pKd (DVL3, Q92997)	pKd (GIPC2, Q8TF65)	pKd (GORASP1, Q9BQQ3)	pKd (GORASP2, Q9H8Y8)	pKd (GRIP1_2, Q9Y3R0)	pKd (GRIP1_3, Q9Y3R0)	pKd (GRIP1_5, Q9Y3R0)	pKd (HTRA1, Q92743)	pKd (Inadl_10, Q8NI35)	pKd (LIN7A, O14910)	pKd (LNX1_1, Q8TBB1)	pKd (LNX1_3, Q8TBB1)	pKd (MAGI1_1, Q96QZ7)	pKd (MAST2, Q6P0Q8)	pKd (NHERF4_2, Q86UT5)	pKd (NHERF4_4, Q86UT5)	pKd (PDLIM1, O00151)	also measured
B1	3.96	3.97	4.04	below the threshold	below the threshold	3.76	3.99	below the threshold	below the threshold	below the threshold	3.72	below the threshold	below the threshold	3.79	below the threshold	below the threshold	5.12	below the threshold	below the threshold	below the threshold	pKd (PDZRN3_1, Q9UPQ7): 3.78; pKd (PDZRN4_1, Q6ZMN7): below the threshold; pKd (RADIL, Q96JH8): 3.7; pKd (RAPGEF6, Q8TEU7): below the threshold; pKd (RHPN1, Q8TCX5): 4.04; pKd (SCRIB_1, Q14160): below the threshold; pKd (TJP2_1, Q9UDY2): 4.04
B2	3.63	4.03	below the threshold	4.38	below the threshold	4.9	5.44	below the threshold	below the threshold	below the threshold	4.5	below the threshold	below the threshold	3.5	below the threshold	3.48	below the threshold	below the threshold	below the threshold	below the threshold	pKd (PDZRN3_1, Q9UPQ7): below the threshold; pKd (PDZRN4_1, Q6ZMN7): below the threshold; pKd (RADIL, Q96JH8): 5.63; pKd (RAPGEF6, Q8TEU7): below the threshold; pKd (RHPN1, Q8TCX5): below the threshold; pKd (SCRIB_1, Q14160): below the threshold; pKd (TJP2_1, Q9UDY2): 6.12
